Measured values published in the RNAGym collection of RNA variant scans (doi:10.7554/elife.80360).

B1: CPEB3 Ribozyme (parent)
chain: GGGGGCCACAGCAGAAGCGUUCACGUCGCGGCCCCUGUCAGAUUCUGGUGAAUCUGCGAAUUCUGCUGU

Variants of: B1
Assay: self-cleavage, relative activity (ratio to wild type); higher = more cleavage; co-transcriptional

| Variant | self-cleavage |
| --- | --- |
| C6G C34A | 0.0671 |
| C6G C35G | 0.0784 |
| C6G C39A | 0.173 |
| C6G C39U | 0.168 |
| C6G C45G | 0.376 |
| C6G C54A | 0.162 |
| C6G C57G | 0.0373 |
| C6G C66G | 0.311 |
| C6G G11A | 0.177 |
| C6G G11U | 0.185 |
| C6G G14U | 0.121 |
| C6G G25A | 0.0449 |
| C6G G28A | 0.0625 |
| C6G G28C | 0.0369 |
| C6G G30U | 0.045 |
| C6G G31C | 0.93 |
| C6G G37U | 0.0713 |
| C6G G41C | 0.118 |
| C6G G47U | 0.463 |
| C6G G48A | 0.493 |
| C6G G50C | 0.205 |
| C6G G65C | 0.158 |
| C6G U20C | 0.0949 |
| C6G U20G | 0.0342 |

| Variant | self-cleavage |
| --- | --- |
| C6G U21A | 0.246 |
| C6G U26C | 0.249 |
| C6G U36C | 0.184 |
| C6G U38G | 0.0812 |
| C6G U43A | 0.172 |
| C6G U43G | 0.126 |
| C6G U46A | 0.377 |
| C6G U46C | 0.41 |
| C6G U46G | 0.386 |
| C6G U53G | 0.136 |
| C6G U55A | 0.26 |
| C6G U55C | 0.284 |
| C6G U55G | 0.144 |
| C6G U61A | 0.128 |
| C6G U61G | 0.209 |
| C6G U62C | 0.0999 |
| C6G U64C | 0.166 |
| C6G U64G | 0.276 |
| C6G U67A | 0.325 |
| C6U A10G | 0.908 |
| C6U A13G | 0.987 |
| C6U A13U | 0.867 |
| C6U A15U | 0.698 |
| C6U A23G | 1.03 |

| Variant | self-cleavage |
| --- | --- |
| C6U A40G | 0.999 |
| C6U A42G | 0.951 |
| C6U A51G | 1.01 |
| C6U A51U | 0.986 |
| C6U A52G | 0.997 |
| C6U C7U | 0.86 |
| C6U C18G | 0.0786 |
| C6U C18U | 0.727 |
| C6U C22A | 0.172 |
| C6U C22U | 0.198 |
| C6U C24G | 0.345 |
| C6U C27U | 0.256 |
| C6U C29A | 0.493 |
| C6U C29U | 0.405 |
| C6U C32A | 0.177 |
| C6U C33A | 0.257 |
| C6U C33G | 0.145 |
| C6U C34G | 0.188 |
| C6U C35G | 0.2 |
| C6U C35U | 0.78 |
| C6U C39A | 0.852 |
| C6U C54U | 1.03 |
| C6U C63A | 0.806 |
| C6U G11A | 0.861 |

| Variant | self-cleavage |
| --- | --- |
| C6U G14C | 0.458 |
| C6U G14U | 0.616 |
| C6U G17U | 0.209 |
| C6U G19U | 0.298 |
| C6U G25A | 0.141 |
| C6U G25U | 0.18 |
| C6U G28U | 0.168 |
| C6U G31A | 1.02 |
| C6U G41U | 0.817 |
| C6U G48U | 1 |
| C6U G50C | 1.02 |
| C6U G50U | 0.979 |
| C6U G56A | 0.962 |
| C6U G58U | 1.01 |
| C6U G65A | 0.849 |
| C6U U20A | 0.115 |
| C6U U20C | 0.144 |
| C6U U21A | 0.997 |
| C6U U26G | 0.91 |
| C6U U36C | 0.969 |
| C6U U38A | 0.916 |
| C6U U43C | 0.902 |
| C6U U43G | 0.815 |
| C6U U44G | 1.01 |

| Variant | self-cleavage |
| --- | --- |
| C6U U49A | 1 |
| C6U U49G | 0.956 |
| C6U U62C | 0.811 |
| C6U U67A | 0.995 |
| C6U U67C | 1.02 |
| C6U U69C | 1.06 |
| C7A A8C | 0.769 |
| C7A A10U | 0.912 |
| C7A A13C | 0.277 |
| C7A A15U | 0.135 |
| C7A A16C | 0.0791 |
| C7A A16G | 0.383 |
| C7A A23C | 0.407 |
| C7A A40G | 0.416 |
| C7A A42C | 0.322 |
| C7A A42G | 0.471 |
| C7A A42U | 0.349 |
| C7A A51U | 0.402 |
| C7A A52G | 0.515 |
| C7A A59C | 0.239 |
| C7A A60G | 0.272 |
| C7A C9A | 0.97 |
| C7A C12U | 0.592 |
| C7A C18G | 0.159 |

| Variant | self-cleavage |
| --- | --- |
| C7A C18U | 0.224 |
| C7A C22A | 0.0549 |
| C7A C22U | 0.139 |
| C7A C29A | 0.0674 |
| C7A C32A | 0.165 |
| C7A C35A | 0.126 |
| C7A C39G | 0.428 |
| C7A C45A | 0.485 |
| C7A C45U | 0.566 |
| C7A C54G | 0.101 |
| C7A C57G | 0.179 |
| C7A C63A | 0.149 |
| C7A C63G | 0.303 |
| C7A G11C | 0.305 |
| C7A G19A | 0.14 |
| C7A G31U | 0.598 |
| C7A G37A | 0.133 |
| C7A G37C | 0.122 |
| C7A G37U | 0.0728 |
| C7A G41A | 0.255 |
| C7A G41U | 0.214 |
| C7A G47A | 0.612 |
| C7A G47C | 0.593 |
| C7A G47U | 0.637 |

| Variant | self-cleavage |
| --- | --- |
| C7A G48C | 0.681 |
| C7A G50C | 0.545 |
| C7A G56U | 0.357 |
| C7A G58C | 0.464 |
| C7A G68C | 0.923 |
| C7A U26A | 0.176 |
| C7A U36A | 0.127 |
| C7A U38G | 0.0677 |
| C7A U43A | 0.266 |
| C7A U43G | 0.373 |
| C7A U44A | 0.447 |
| C7A U46A | 0.6 |
| C7A U53A | 0.321 |
| C7A U53C | 0.274 |
| C7A U61A | 0.169 |
| C7A U62G | 0.29 |
| C7A U64C | 0.336 |
| C7A U67A | 0.884 |
| C7A U67G | 0.858 |
| C7A U69C | 1 |
| C7G A13C | 0.285 |
| C7G A15U | 0.0664 |
| C7G A23G | 0.333 |
